Data set [1] in a line: Pharmacokinetic studies, single s.c. dose in normal male Sprague-Dawley rats. In kind it is in vivo, rat. Particulars: single-dose 1 mg/kg bolus s.c., normal male Sprague-Dawley rats. As for the experimental part: Pharmacokinetic properties of PEG-modified growth hormone compounds were compared to each other and to nonPEGylated growth hormone in male Sprague-Dawley rats (261-425 g) obtained from Charles River Laboratories. Catheters were surgically installed into the carotid artery for blood collection. Following successful catheter installation, animals were assigned to treatment groups (three to six per group) prior to dosing. Animals were dosed subcutaneously with 1 mg/kg of compound in a dose volume of 0.41-0.55 ml/kg. Blood samples were collected at various time points via the indwelling catheter and into EDTA-coated microfuge tubes. Plasma was collected after centrifugation, and stored at −80° C. until analysis. Compound concentrations were measured using antibody sandwich growth hormone ELISA kits from either BioSource International (Camarillo, Calif.) or Diagnostic Systems Laboratories (Webster, Tex.). Concentrations were calculated using standards corresponding to the analog that was dosed. Pharmacokinetic parameters were estimated using the modeling program WinNonlin (Pharsight, version 4.1). Noncompartmental analysis with linear-up/log-down trapezoidal integration was used, and concentration data was uniformly weighted.
Rats (n=3-4 per group) were given a single bolus dose of 1 mg/kg hGH wild-type protein (WHO hGH), His-tagged hGH polypeptide (his-hGH), or His-tagged hGH polypeptide comprising non-natural amino acid p-acetyl-phenylalanine at position 92 covalently linked to 30 kDa PEG (30 KPEG-pAF92(his)hGH). Plasma samples were taken over the indicated time intervals and assayed for injected compound as described.
Rats (n=3-6 per group) were given a single bolus dose of 1 mg/kg protein. hGH polypeptides comprising non-natural amino acid p-acetyl-phenylalanine covalently linked to 30 kDa PEG at each of six different positions were compared to WHO hGH and (his)-hGH. Plasma samples were taken over the indicated time intervals and assayed for injected compound as described. Concentration vs time curves were evaluated by noncompartmental analysis (Pharsight, version 4.1). Values shown are averages (+/− standard deviation). Cmax: maximum concentration; terminal t1/2: terminal half-life; AUC0->inf: area under the concentration-time curve extrapolated to infinity; MRT: mean residence time; Cl/f: apparent total, plasma clearance; Vz/f: apparent volume of distribution during terminal phase.

Data set [2] deals with T1, rat GHR ECD (L43R) (Rattus norvegicus, UniProt P16310, L61R).
T1 construct: (GHR ECD, amino acids S29-T238) was cloned into pET20b vector; made in house
T1 sequence (P16310 47-256 L61R): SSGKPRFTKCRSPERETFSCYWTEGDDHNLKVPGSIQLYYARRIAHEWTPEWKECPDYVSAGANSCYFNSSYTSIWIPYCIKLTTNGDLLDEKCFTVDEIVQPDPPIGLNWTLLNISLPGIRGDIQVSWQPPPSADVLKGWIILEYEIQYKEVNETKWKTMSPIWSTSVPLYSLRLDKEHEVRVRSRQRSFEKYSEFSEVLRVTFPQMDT
Put plainly: Biacore analysis of binding of GH to GHR. Particulars: rat GHR ECD (L43R) immobilized on a CM5 chip, bivalent analyte model. How it is done:
Cloning and purification of rat GH receptor The extracellular domain of rat GH receptor (GHR ECD, amino acids S29-T238) was cloned into pET20b vector (Novagen) between Nde I and Hind III sites in frame with C-terminal 6H is tag. A mutation of L43 to R was introduced to further approximate the human GH receptor binding site (Souza et al., Proc Natl Acad Sci USA. (1995) 92(4): 959-63). Recombinant protein was produced in BL21 (DE3) E. coli cells (Novagen) by induction with 0.4 mM IPTG at 30° C. for 4-5 hours. After lysing the cells, the pellet was washed four times by resuspending in a dounce with 30 mL of 50 mM Tris, pH 7.6, 100 mM NaCl, 1 mM EDTA, 1% Triton X-100, and twice with the same buffer without Triton X-100. […] Refolding was accomplished by means of passing an aliquot of the inclusion body solution through a S100 (Sigma) gel filtration column, equilibrated with 50 mM Tris, pH 7.8, 1 M L-arginine, 3.7 mM cystamine, 6.5 mM cysteamine. Fractions containing soluble protein were combined and dialyzed against 50 mM Tris, pH 7.6, 200 mM NaCl, 10% glycerol. The sample was briefly centrifuged to remove any precipitate and incubated with an aliquot of Talon resin (Clontech), according to manufacturer's instructions. After washing the resin with 20 volumes of dialysis buffer supplemented with 5 mM imidazole, protein was eluted with 120 mM imidazole in dialysis buffer. Finally, the sample was dialyzed overnight against 50 mM Tris, pH 7.6, 30 mM NaCl, 1 mM EDTA, 10% glycerol, centrifuged briefly to remove any precipitate, adjusted to 20% glycerol final concentration, aliquoted and stored at −80 C. Concentration of the protein was measured by OD(280) using calculated extinction coefficient of ε=65,700 M^−1*cm^−1.
Approximately 600-800 RUs of soluble GHR ECD was immobilized on a Biacore™ CM5 chip, using a standard amine-coupling procedure, as recommended by the manufacturer. […] See, e.g., Cunningham et al. J Mol. Biol. (1993) 234(3): 554-63 and Wells J A. Proc Natl Acad Sci USA (1996) 93(1): 1-6).
Various concentrations of wild type or mutant GH (0.1-300 nM) in HBS-EP buffer (Biacore™, Pharmacia) were injected over the GHR surface at a flow rate of 40 μl/min for 4-5 minutes, and dissociation was monitored for 15 minutes post-injection. The surface was regenerated by a 15 second pulse of 4.5M MgCl2. […] Reference cell with no receptor immobilized was used to subtract any buffer bulk effects and non-specific binding.
Kinetic binding data obtained from GH titration experiments was processed with BiaEvaluation 4.1 software (BIACORE™). […] Equilibrium dissociation constants (Kd) were calculated as ratios of individual rate constants (koff/kon).
For orientation: Surface plasmon resonance follows binding to a sensor surface in real time, without labels.

The subject of data set [3] is hypophysectomized rats. The experiment in a line: Pharmacodynamic studies in hypophysectomized rats (Example 30). In kind it is in vivo, rat. Particulars: s.c., compared with the pAF92 30 kDa PEG compound, p<0.0005. As for the experimental part:
Hypophysectomized male Sprague-Dawley rats were obtained from Charles River Laboratories. Pituitaries were surgically removed at 3-4 weeks of age. Animals were allowed to acclimate for a period of three weeks, during which time bodyweight was monitored. Animals with a bodyweight gain of 0-8 g over a period of seven days before the start of the study were included and randomized to treatment groups. Rats were administered either a bolus dose or daily dose subcutaneously. Throughout the study rats were daily and sequentially weighed, anesthetized, bled, and dosed (when applicable). Blood was collected from the orbital sinus using a heparinized capillary tube and placed into an EDTA coated microfuge tube. Plasma was isolated by centrifugation and stored at −80° C. until analysis.
The peptide IGF-1 is a member of the family of somatomedins or insulin-like growth factors. IGF-1 mediates many of the growth-promoting effects of growth hormone. IGF-1 concentrations were measured using a competitive binding enzyme immunoassay kit against the provided rat/mouse IGF-1 standards (Diagnosic Systems Laboratories). Significant difference was determined by t-test using two-tailed distribution, unpaired, equal variance. […] Rats (n=5-7 per group) were given either a single dose or daily dose subcutaneously. Animals were sequentially weighed, anesthetized, bled, and dosed (when applicable) daily. […]

The MRT is a mean duration of stay, worked out from the concentration-time curve. Usually kon stands for the rate constant with which the complex forms.

As for “Y35pAF-30KD PEG: hGH polypeptide comprising p-acetyl-phenylalanine at position 35 covalently linked to 30 kDa PEG”, in data set [1], the “AUC0−>inf” value was 39,918 ng × hr/ml, the Cl/f was determined as 0.583 mL/min/kg, the Cmax was 1,885 ng/ml and the mean residence time MRT turned out to be 19.16 h. Besides, in data set [1], the “Terminal t1/2” value came out at 4.85 h. Also, in data set [2], the kon was found to be 90000 M⁻¹ s⁻¹. Moreover, the “bodyweight gain at day 9” value in data set [3] is recorded as “greater weight gain was observed”.
